Source: patent US20230038761, “REGULATION OF VON WILLEBRAND FACTOR (VWF)” (BAND THERAPEUTICS, LLC, published 2023)

How the values were obtained:
[1] = molecular target: T1, von Willebrand factor (VWF) (Homo sapiens, UniProt P04275 SEQ:764-2813); test: ELISA with anti-PEG detection; dPBS, 37 C, 2 h
Method: (§1) The affinity of BT200, with or without pre-incubation with BT101, for purified human VWF was evaluated using an enzyme-linked immunosorbent assay (ELISA) method. In this study, purified human VWF protein was dissolved in Dulbecco's phosphate buffered saline (dPBS) buffer at a concentration of 10 μg/mL and 100 μL of this solution was added to each well of a Nunc Maxisorp 96-well plate. The plate was incubated overnight at 4° C. The following day, the plate was washed 3 times, followed by blocking with 5% bovine serum albumin (BSA) in dPBS at room temperature for 90 minutes. The blocked plate was then washed 3 times before adding either BT200 at concentrations of 0.3, 1, 3, 10, 30, 100, 300, 1000, 3000, and 10000 nM or a pre-incubated 1:1 molar ratio of BT101:BT200 at the same concentrations. BT101 and BT200 were mixed and incubated at 37° C. for 30 minutes prior to addition to the plate.
(§2) Plates were then incubated at 37° C. for 2 hours. Each plate was then washed 3 times and 100 μL of anti-PEG antibody at 1 μg/mL in 1% BSA/dPBS was added to each well and incubated for 1 hour at room temperature. […] To stop the reaction, 100 μL of 2 N H₂SO₄ was added to each well and the plate was then read at 450 nm for absorbance and the mean absorbance under each set of conditions was recorded.

[2] = molecular target: T1, von Willebrand factor (VWF); test: ELISA; no OD increase up to 10 uM BT200 after pre-incubation with BT101 at 1:1; dPBS, 37 C
Method: as §1, §2

T1 sequence (P04275 764-2813 Q852R): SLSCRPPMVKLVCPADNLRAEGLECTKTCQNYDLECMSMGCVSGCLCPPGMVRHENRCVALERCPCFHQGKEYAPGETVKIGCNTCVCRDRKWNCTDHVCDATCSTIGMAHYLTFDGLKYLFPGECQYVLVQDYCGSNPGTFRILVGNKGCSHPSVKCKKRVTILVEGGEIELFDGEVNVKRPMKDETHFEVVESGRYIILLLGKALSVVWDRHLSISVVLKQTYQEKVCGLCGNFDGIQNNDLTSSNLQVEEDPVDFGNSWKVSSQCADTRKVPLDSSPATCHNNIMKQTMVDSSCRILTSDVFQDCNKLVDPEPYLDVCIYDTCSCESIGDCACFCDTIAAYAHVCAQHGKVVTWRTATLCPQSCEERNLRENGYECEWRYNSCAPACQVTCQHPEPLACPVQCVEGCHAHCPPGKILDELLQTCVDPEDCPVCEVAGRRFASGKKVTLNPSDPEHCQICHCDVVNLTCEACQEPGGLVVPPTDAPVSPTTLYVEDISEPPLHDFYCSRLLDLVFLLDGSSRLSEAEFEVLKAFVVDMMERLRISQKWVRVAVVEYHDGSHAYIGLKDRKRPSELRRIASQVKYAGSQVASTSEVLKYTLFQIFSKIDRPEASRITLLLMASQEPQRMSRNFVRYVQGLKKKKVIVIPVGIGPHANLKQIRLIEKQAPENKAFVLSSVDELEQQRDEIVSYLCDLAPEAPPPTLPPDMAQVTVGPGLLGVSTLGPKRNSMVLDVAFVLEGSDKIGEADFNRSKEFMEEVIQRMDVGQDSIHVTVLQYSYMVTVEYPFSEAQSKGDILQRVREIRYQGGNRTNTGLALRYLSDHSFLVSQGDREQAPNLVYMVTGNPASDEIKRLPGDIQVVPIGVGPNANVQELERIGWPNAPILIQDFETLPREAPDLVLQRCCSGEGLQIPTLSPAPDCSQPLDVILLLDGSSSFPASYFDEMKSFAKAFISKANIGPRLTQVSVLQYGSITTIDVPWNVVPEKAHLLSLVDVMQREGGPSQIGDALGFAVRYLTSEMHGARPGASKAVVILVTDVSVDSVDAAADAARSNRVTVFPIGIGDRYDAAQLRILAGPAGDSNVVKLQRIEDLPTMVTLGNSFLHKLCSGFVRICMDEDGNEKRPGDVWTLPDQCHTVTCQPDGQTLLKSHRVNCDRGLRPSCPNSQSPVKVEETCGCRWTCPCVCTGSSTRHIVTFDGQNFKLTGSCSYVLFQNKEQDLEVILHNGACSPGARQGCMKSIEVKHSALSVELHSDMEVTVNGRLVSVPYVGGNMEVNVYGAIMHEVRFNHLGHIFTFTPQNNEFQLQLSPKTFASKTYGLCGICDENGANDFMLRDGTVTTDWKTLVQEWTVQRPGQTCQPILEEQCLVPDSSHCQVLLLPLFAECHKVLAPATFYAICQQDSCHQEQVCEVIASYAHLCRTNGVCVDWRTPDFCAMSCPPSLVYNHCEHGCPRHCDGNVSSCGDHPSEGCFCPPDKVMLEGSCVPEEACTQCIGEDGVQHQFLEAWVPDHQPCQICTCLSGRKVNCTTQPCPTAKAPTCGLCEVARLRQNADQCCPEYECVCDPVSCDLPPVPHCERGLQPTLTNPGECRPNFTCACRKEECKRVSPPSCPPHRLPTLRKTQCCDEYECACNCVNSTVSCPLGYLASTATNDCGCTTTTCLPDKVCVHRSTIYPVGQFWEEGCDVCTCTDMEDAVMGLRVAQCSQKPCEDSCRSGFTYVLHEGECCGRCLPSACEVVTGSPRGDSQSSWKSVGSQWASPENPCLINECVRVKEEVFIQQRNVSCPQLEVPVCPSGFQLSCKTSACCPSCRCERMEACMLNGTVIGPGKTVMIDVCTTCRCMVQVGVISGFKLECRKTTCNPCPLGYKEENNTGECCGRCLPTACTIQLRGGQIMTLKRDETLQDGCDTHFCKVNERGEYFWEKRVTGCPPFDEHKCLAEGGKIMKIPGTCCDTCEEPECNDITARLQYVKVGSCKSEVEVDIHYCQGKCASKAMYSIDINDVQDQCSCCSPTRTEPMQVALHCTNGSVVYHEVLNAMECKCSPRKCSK

GCCAGGGACCUAAGACACAUGUCCCUGGC (ssRNA, all residues 2'-OMe; 5' PEG40K-NH; 3' idT (final t of SEQ 6)) [BT200]
EC50 [1]: 331 nM

B1: BT200/BT101 duplex (dsRNA)
RNA 1: GCCAGGGACCUAAGACACAUGUCCCUGGC
RNA 2: ACAUGUGUCUUAGGUCCCUGGCT
modifications: all residues 2'-OMe in both strands; BT200 5' PEG40K-NH; 3' idT on both strands
binding result [2]: no binding
